Molecular target: the molecule itself
Test: thioflavin T fluorescence of fibril formation; I59T lysozyme 6.8 μM, 0.1 M citrate buffer pH 5.0, 25 μM ThT, 60 °C, with stirring; self-association into fibrils

B1: I59T human lysozyme (natural protein, UniProt P61626 19-148, looked up)
chain: KVFERCELARTLKRLGMDGYRGISLANWMCLAKWESGYNTRATNYNAGDRSTDYGIFQTNSRYWCNDGKTPGAVNACHLSCSALLQDNIADAVACAKRVVRDPQGIRAWVAWRNRCQNRDVRQYVQGCGV
notes: human lysozyme, non-natural variant I59T; monomer 14.7 kDa; also called I59T lysozyme; source: expressed and purified as previously described [16]
  binding result: binds
